Patent US20140087995A1 (published 2014)
Numbered stars: 1 amine (or outer) side, 2 acyl side, 3 side chain; on linkers, the order of the positions; unused ones are H or OH. Bridge positions count the residues as written; N and C are the ends. Side chains are listed from the residue outwards. Ends that are not written are not given here. * marks the point of attachment. C20 diacid = O=C(O)CCCCCCCCCCCCCCCCCCC(=O)*; γGlu = O=C(O)[C@H](CCC(=O)[*:2])N[*:1]; AEEA = NCCOCCOCC(=O)O

T1: human calcitonin receptor (human, UniProt P30988 25-474)
T1 construct: whole, on cells; also called hCTR; hCT
T1 sequence (looked up): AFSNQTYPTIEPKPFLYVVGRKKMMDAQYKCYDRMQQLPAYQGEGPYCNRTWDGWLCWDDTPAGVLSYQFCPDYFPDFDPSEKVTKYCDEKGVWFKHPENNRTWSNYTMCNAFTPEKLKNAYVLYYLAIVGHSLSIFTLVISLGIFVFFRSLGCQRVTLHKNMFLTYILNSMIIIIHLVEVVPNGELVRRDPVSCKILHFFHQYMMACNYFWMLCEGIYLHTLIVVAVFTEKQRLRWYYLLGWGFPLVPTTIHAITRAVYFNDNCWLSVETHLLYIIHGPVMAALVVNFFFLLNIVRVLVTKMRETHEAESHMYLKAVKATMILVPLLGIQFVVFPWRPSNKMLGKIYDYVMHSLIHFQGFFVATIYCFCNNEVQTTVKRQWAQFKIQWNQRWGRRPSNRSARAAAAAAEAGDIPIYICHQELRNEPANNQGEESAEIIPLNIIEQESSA

B1: N^ε1-[2-[2-[2-[[(4S)-4-carboxy-4-(19-carboxynonadecanoylamino)butanoyl]amino]ethoxy]ethoxy]acetyl]-[Arg17,Pro21,Pro27,Pro31]-h-amylin (peptide)
peptide: K([AEEA-γGlu-C20 diacid])CNTATCATQRLANFLRHSSPNFGAIPSSTPVGSNTY-NH2
modifications: disulfide 2-7; N-terminus assumed
SMILES: CC[C@H](C)[C@H](NC(=O)[C@H](C)NC(=O)CNC(=O)[C@H](Cc1ccccc1)NC(=O)[C@H](CC(N)=O)NC(=O)[C@@H]1CCCN1C(=O)[C@H](CO)NC(=O)[C@H](CO)NC(=O)[C@H](Cc1c[nH]cn1)NC(=O)[C@H](CCCNC(=N)N)NC(=O)[C@H](CC(C)C)NC(=O)[C@H](Cc1ccccc1)NC(=O)[C@H](CC(N)=O)NC(=O)[C@H](C)NC(=O)[C@H](CC(C)C)NC(=O)[C@H](CCCNC(=N)N)NC(=O)[C@H](CCC(N)=O)NC(=O)[C@@H](NC(=O)[C@H](C)NC(=O)[C@@H]1CSSC[C@H](NC(=O)[C@@H](N)CCCCNC(=O)COCCOCCNC(=O)CC[C@H](NC(=O)CCCCCCCCCCCCCCCCCCC(=O)O)C(=O)O)C(=O)N[C@@H](CC(N)=O)C(=O)N[C@@H]([C@@H](C)O)C(=O)N[C@@H](C)C(=O)N[C@@H]([C@@H](C)O)C(=O)N1)[C@@H](C)O)C(=O)N1CCC[C@H]1C(=O)N[C@@H](CO)C(=O)N[C@@H](CO)C(=O)N[C@H](C(=O)N1CCC[C@H]1C(=O)N[C@H](C(=O)NCC(=O)N[C@@H](CO)C(=O)N[C@@H](CC(N)=O)C(=O)N[C@H](C(=O)N[C@@H](Cc1ccc(O)cc1)C(N)=O)[C@@H](C)O)C(C)C)[C@@H](C)O
notes: also called compound 49
B2: N^ε1-[(4S)-4-carboxy-4-(19-carboxynonadecanoylamino)butanoyl]-[Arg17,Pro21,Pro27,Lys35]-h-amylin (peptide)
peptide: K([γGlu-C20 diacid])CNTATCATQRLANFLRHSSPNFGAIPSSTNVGSKTY-NH2
modifications: disulfide 2-7; N-terminus assumed
SMILES: CC[C@H](C)[C@H](NC(=O)[C@H](C)NC(=O)CNC(=O)[C@H](Cc1ccccc1)NC(=O)[C@H](CC(N)=O)NC(=O)[C@@H]1CCCN1C(=O)[C@H](CO)NC(=O)[C@H](CO)NC(=O)[C@H](Cc1c[nH]cn1)NC(=O)[C@H](CCCNC(=N)N)NC(=O)[C@H](CC(C)C)NC(=O)[C@H](Cc1ccccc1)NC(=O)[C@H](CC(N)=O)NC(=O)[C@H](C)NC(=O)[C@H](CC(C)C)NC(=O)[C@H](CCCNC(=N)N)NC(=O)[C@H](CCC(N)=O)NC(=O)[C@@H](NC(=O)[C@H](C)NC(=O)[C@@H]1CSSC[C@H](NC(=O)[C@@H](N)CCCCNC(=O)CC[C@H](NC(=O)CCCCCCCCCCCCCCCCCCC(=O)O)C(=O)O)C(=O)N[C@@H](CC(N)=O)C(=O)N[C@@H]([C@@H](C)O)C(=O)N[C@@H](C)C(=O)N[C@@H]([C@@H](C)O)C(=O)N1)[C@@H](C)O)C(=O)N1CCC[C@H]1C(=O)N[C@@H](CO)C(=O)N[C@@H](CO)C(=O)N[C@H](C(=O)N[C@@H](CC(N)=O)C(=O)N[C@H](C(=O)NCC(=O)N[C@@H](CO)C(=O)N[C@@H](CCCCN)C(=O)N[C@H](C(=O)N[C@@H](Cc1ccc(O)cc1)C(N)=O)[C@@H](C)O)C(C)C)[C@@H](C)O
notes: also called compound 35
B3: N^ε1-[2-[2-[2-[[(4S)-4-carboxy-4-(19-carboxynonadecanoylamino)butanoyl]amino]ethoxy]ethoxy]acetyl]-[Arg17,Pro21,Pro27]-h-amylin (peptide)
peptide: K([AEEA-γGlu-C20 diacid])CNTATCATQRLANFLRHSSPNFGAIPSSTNVGSNTY-NH2
modifications: disulfide 2-7; N-terminus assumed
SMILES: CC[C@H](C)[C@H](NC(=O)[C@H](C)NC(=O)CNC(=O)[C@H](Cc1ccccc1)NC(=O)[C@H](CC(N)=O)NC(=O)[C@@H]1CCCN1C(=O)[C@H](CO)NC(=O)[C@H](CO)NC(=O)[C@H](Cc1c[nH]cn1)NC(=O)[C@H](CCCNC(=N)N)NC(=O)[C@H](CC(C)C)NC(=O)[C@H](Cc1ccccc1)NC(=O)[C@H](CC(N)=O)NC(=O)[C@H](C)NC(=O)[C@H](CC(C)C)NC(=O)[C@H](CCCNC(=N)N)NC(=O)[C@H](CCC(N)=O)NC(=O)[C@@H](NC(=O)[C@H](C)NC(=O)[C@@H]1CSSC[C@H](NC(=O)[C@@H](N)CCCCNC(=O)COCCOCCNC(=O)CC[C@H](NC(=O)CCCCCCCCCCCCCCCCCCC(=O)O)C(=O)O)C(=O)N[C@@H](CC(N)=O)C(=O)N[C@@H]([C@@H](C)O)C(=O)N[C@@H](C)C(=O)N[C@@H]([C@@H](C)O)C(=O)N1)[C@@H](C)O)C(=O)N1CCC[C@H]1C(=O)N[C@@H](CO)C(=O)N[C@@H](CO)C(=O)N[C@H](C(=O)N[C@@H](CC(N)=O)C(=O)N[C@H](C(=O)NCC(=O)N[C@@H](CO)C(=O)N[C@@H](CC(N)=O)C(=O)N[C@H](C(=O)N[C@@H](Cc1ccc(O)cc1)C(N)=O)[C@@H](C)O)C(C)C)[C@@H](C)O
notes: also called compound 41
B4: N^ε1-[(4S)-4-carboxy-4-(19-carboxynonadecanoylamino)butanoyl]-[Arg17,Pro21,Pro27]-h-amylin (peptide)
peptide: K([γGlu-C20 diacid])CNTATCATQRLANFLRHSSPNFGAIPSSTNVGSNTY-NH2
modifications: disulfide 2-7; N-terminus assumed
SMILES: CC[C@H](C)[C@H](NC(=O)[C@H](C)NC(=O)CNC(=O)[C@H](Cc1ccccc1)NC(=O)[C@H](CC(N)=O)NC(=O)[C@@H]1CCCN1C(=O)[C@H](CO)NC(=O)[C@H](CO)NC(=O)[C@H](Cc1c[nH]cn1)NC(=O)[C@H](CCCNC(=N)N)NC(=O)[C@H](CC(C)C)NC(=O)[C@H](Cc1ccccc1)NC(=O)[C@H](CC(N)=O)NC(=O)[C@H](C)NC(=O)[C@H](CC(C)C)NC(=O)[C@H](CCCNC(=N)N)NC(=O)[C@H](CCC(N)=O)NC(=O)[C@@H](NC(=O)[C@H](C)NC(=O)[C@@H]1CSSC[C@H](NC(=O)[C@@H](N)CCCCNC(=O)CC[C@H](NC(=O)CCCCCCCCCCCCCCCCCCC(=O)O)C(=O)O)C(=O)N[C@@H](CC(N)=O)C(=O)N[C@@H]([C@@H](C)O)C(=O)N[C@@H](C)C(=O)N[C@@H]([C@@H](C)O)C(=O)N1)[C@@H](C)O)C(=O)N1CCC[C@H]1C(=O)N[C@@H](CO)C(=O)N[C@@H](CO)C(=O)N[C@H](C(=O)N[C@@H](CC(N)=O)C(=O)N[C@H](C(=O)NCC(=O)N[C@@H](CO)C(=O)N[C@@H](CC(N)=O)C(=O)N[C@H](C(=O)N[C@@H](Cc1ccc(O)cc1)C(N)=O)[C@@H](C)O)C(C)C)[C@@H](C)O
notes: also called compound 48
B5: N^ε1-[(4S)-4-carboxy-4-(19-carboxynonadecanoylamino)butanoyl]-[Arg17,Pro21,Pro27,Glu35]-h-amylin (peptide)
peptide: K([γGlu-C20 diacid])CNTATCATQRLANFLRHSSPNFGAIPSSTNVGSETY-NH2
modifications: disulfide 2-7; N-terminus assumed
SMILES: CC[C@H](C)[C@H](NC(=O)[C@H](C)NC(=O)CNC(=O)[C@H](Cc1ccccc1)NC(=O)[C@H](CC(N)=O)NC(=O)[C@@H]1CCCN1C(=O)[C@H](CO)NC(=O)[C@H](CO)NC(=O)[C@H](Cc1c[nH]cn1)NC(=O)[C@H](CCCNC(=N)N)NC(=O)[C@H](CC(C)C)NC(=O)[C@H](Cc1ccccc1)NC(=O)[C@H](CC(N)=O)NC(=O)[C@H](C)NC(=O)[C@H](CC(C)C)NC(=O)[C@H](CCCNC(=N)N)NC(=O)[C@H](CCC(N)=O)NC(=O)[C@@H](NC(=O)[C@H](C)NC(=O)[C@@H]1CSSC[C@H](NC(=O)[C@@H](N)CCCCNC(=O)CC[C@H](NC(=O)CCCCCCCCCCCCCCCCCCC(=O)O)C(=O)O)C(=O)N[C@@H](CC(N)=O)C(=O)N[C@@H]([C@@H](C)O)C(=O)N[C@@H](C)C(=O)N[C@@H]([C@@H](C)O)C(=O)N1)[C@@H](C)O)C(=O)N1CCC[C@H]1C(=O)N[C@@H](CO)C(=O)N[C@@H](CO)C(=O)N[C@H](C(=O)N[C@@H](CC(N)=O)C(=O)N[C@H](C(=O)NCC(=O)N[C@@H](CO)C(=O)N[C@@H](CCC(=O)O)C(=O)N[C@H](C(=O)N[C@@H](Cc1ccc(O)cc1)C(N)=O)[C@@H](C)O)C(C)C)[C@@H](C)O
notes: also called compound 27
B6: N^ε1-[(4S)-4-carboxy-4-[[(4S)-4-carboxy-4-(19-carboxynonadecanoylamino)butanoyl]amino]butanoyl]-[Asp14,Arg17,Pro21,Pro26,Asp35]-h-amylin (peptide)
peptide: K([γGlu-γGlu-C20 diacid])CNTATCATQRLADFLRHSSPNFGAPLSSTNVGSDTY-NH2
modifications: disulfide 2-7; N-terminus assumed
SMILES: CC(C)C[C@H](NC(=O)[C@H](CCCNC(=N)N)NC(=O)[C@H](CCC(N)=O)NC(=O)[C@@H](NC(=O)[C@H](C)NC(=O)[C@@H]1CSSC[C@H](NC(=O)[C@@H](N)CCCCNC(=O)CC[C@H](NC(=O)CC[C@H](NC(=O)CCCCCCCCCCCCCCCCCCC(=O)O)C(=O)O)C(=O)O)C(=O)N[C@@H](CC(N)=O)C(=O)N[C@@H]([C@@H](C)O)C(=O)N[C@@H](C)C(=O)N[C@@H]([C@@H](C)O)C(=O)N1)[C@@H](C)O)C(=O)N[C@@H](C)C(=O)N[C@@H](CC(=O)O)C(=O)N[C@@H](Cc1ccccc1)C(=O)N[C@@H](CC(C)C)C(=O)N[C@@H](CCCNC(=N)N)C(=O)N[C@@H](Cc1c[nH]cn1)C(=O)N[C@@H](CO)C(=O)N[C@@H](CO)C(=O)N1CCC[C@H]1C(=O)N[C@@H](CC(N)=O)C(=O)N[C@@H](Cc1ccccc1)C(=O)NCC(=O)N[C@@H](C)C(=O)N1CCC[C@H]1C(=O)N[C@@H](CC(C)C)C(=O)N[C@@H](CO)C(=O)N[C@@H](CO)C(=O)N[C@H](C(=O)N[C@@H](CC(N)=O)C(=O)N[C@H](C(=O)NCC(=O)N[C@@H](CO)C(=O)N[C@@H](CC(=O)O)C(=O)N[C@H](C(=O)N[C@@H](Cc1ccc(O)cc1)C(N)=O)[C@@H](C)O)C(C)C)[C@@H](C)O
notes: also called compound 1

What follows are binders tested against T1, human calcitonin receptor (assay: ratio of IC50 at hCTR to IC50 at the human amylin receptor (reference)).
Procedure, shortened: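 Scintillation proximity competition binding on cell membranes at 35 ng/μL with SPA beads, in 50 mM Hepes pH 7.4, 1 mM CaCl2, 5 mM MgCl₂, 0.1% OA, 0.02% Tween20. Incubated 120 min at 25° C with shaking. IC₅₀ from one-site competition fit.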
In the case of B1, the “Ratio hCT/hAmylin binding” value is reported as 10.8.
With B2 the “Ratio hCT/hAmylin binding” value was 50.3.
B3 was tested, and the “Ratio hCT/hAmylin binding” value was 49.9.
B4 was tested, and the “Ratio hCT/hAmylin binding” value was 69.7.
For B5, the “Ratio hCT/hAmylin binding” value was 41.3.
With B6 the “Ratio hCT/hAmylin binding” value was 27.6.

Each binder was assayed against T1, human calcitonin receptor (assay: SPA competition binding, membranes with human calcitonin receptor, displacement of 125I-calcitonin (Assay VII)).
Procedure, shortened: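 BHK hCTR membranes 35 ng/μL + SPA beads 0.05 mg/well; buffer 50 mM Hepes pH 7.4, 1 mM CaCl2, 5 mM MgCl₂, 0.1% OA, 0.02% Tween20. 120 min, 25° C., shaking. Scintillation count; IC50 by one-site binding competition.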
B1 was tested, and the IC50 was 12.9 nM.
B2 was tested, and the IC50 was 48.8 nM.
B3 gave an IC50 of 21.3 nM.
In the case of B4, the IC50 is reported as 30.9 nM.
With B5 the IC50 was 34.5 nM.
B6 was tested, and the IC50 was 32.5 nM.
